Data reported in patent US20100129369A1 (Eli Lilly, published 2010).
Changes are numbered by the printed parent chain. In names and notes the source's numbering stands. Values belong to the binder of their own block, whether it stands above or below them.

Tests used:
[1] = molecular target: T1, human c-Met (human, UniProt P08581 25-1390); experiment: cell-based or functional assay
[2] = molecular target: T1, human c-Met; experiment: cell-based or functional assay; remark: listed apart in the source
[3] = molecular target: T2, Human c-Met-Flis-Fc ECD (human); experiment: ELISA, coated ECD-Fc, antibody 16666.667 ng/mL
T2 construct: also called human c-Met extracellular domain (ECD)-Fc-Flis fusion; Human cMet-ECD-Fc-Flis
T2 sequence (chain, as listed by the source limits assumed): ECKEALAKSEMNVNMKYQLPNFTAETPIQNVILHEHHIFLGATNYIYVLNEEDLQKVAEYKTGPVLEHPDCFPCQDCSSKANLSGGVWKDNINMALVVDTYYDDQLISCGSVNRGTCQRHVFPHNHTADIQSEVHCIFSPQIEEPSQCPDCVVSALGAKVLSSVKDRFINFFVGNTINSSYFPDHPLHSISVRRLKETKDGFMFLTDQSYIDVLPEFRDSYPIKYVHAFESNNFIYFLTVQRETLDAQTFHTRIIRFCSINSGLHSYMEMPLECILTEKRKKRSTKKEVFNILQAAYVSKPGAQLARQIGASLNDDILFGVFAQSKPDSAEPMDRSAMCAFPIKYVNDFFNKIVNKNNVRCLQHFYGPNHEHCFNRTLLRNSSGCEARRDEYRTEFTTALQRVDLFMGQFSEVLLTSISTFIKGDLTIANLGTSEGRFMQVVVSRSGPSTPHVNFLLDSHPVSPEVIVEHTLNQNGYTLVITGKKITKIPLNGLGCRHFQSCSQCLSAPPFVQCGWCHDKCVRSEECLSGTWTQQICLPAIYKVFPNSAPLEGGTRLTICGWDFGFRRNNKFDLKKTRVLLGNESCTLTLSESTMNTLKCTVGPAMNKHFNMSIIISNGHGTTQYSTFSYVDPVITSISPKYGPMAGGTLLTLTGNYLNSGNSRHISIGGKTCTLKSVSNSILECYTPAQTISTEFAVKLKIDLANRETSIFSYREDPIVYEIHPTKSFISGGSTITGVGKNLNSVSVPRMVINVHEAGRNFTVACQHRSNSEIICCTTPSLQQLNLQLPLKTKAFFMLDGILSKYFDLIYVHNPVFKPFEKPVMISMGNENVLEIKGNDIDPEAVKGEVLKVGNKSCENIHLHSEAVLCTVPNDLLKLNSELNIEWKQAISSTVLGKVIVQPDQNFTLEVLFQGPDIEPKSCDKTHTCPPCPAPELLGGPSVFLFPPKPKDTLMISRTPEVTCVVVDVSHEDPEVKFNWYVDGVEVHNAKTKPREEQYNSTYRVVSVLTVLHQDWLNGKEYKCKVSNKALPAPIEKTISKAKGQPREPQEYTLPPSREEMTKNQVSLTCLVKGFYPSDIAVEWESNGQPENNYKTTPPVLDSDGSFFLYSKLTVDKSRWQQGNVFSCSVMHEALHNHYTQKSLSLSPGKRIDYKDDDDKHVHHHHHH
Procedure: (§1) Wells of 96-well EIA/RIA high binding plates (Costar, #2592) are coated with 100 μL of 1 μg/mL human c-Met extracellular domain (ECD)-Fc-Flis fusion (SEQ ID NO:72), RON-ECD-Fc (R&D Systems, #1947-MS), or PlexinA2-ECD-Fc (Abnova, Taipei, Taiwan #H00005362-P01) in coating buffer (BioFX Labs, # COAT-1000-01) overnight at 4° C. […] After the plates are washed, 100 μL/well of substrate solution (BioFx, #TMBW-1000-01) are added and the plates are incubated for 10 min. at room temperature. 100 μL/well of stop solution (BioFx, # LSTP-1000-01) are added to stop the reaction. The colorimetric signals are developed and read at 450 nm using a SpectraMax 190 plate reader (Molecular Devices, Sunnyvale, Calif.). c-Met antibody binding to c-Met, RON and PlexinA2 ECDs is proportional to color signal production.

[4] = molecular target: T2, Human c-Met-Flis-Fc ECD; experiment: ELISA, coated ECD-Fc, antibody 0.000 ng/mL
Procedure: as §1

[5] = molecular target: T2, Human c-Met-Flis-Fc ECD; experiment: ELISA, coated ECD-Fc, antibody 0.060 ng/mL
Procedure: as §1

[6] = molecular target: T2, Human c-Met-Flis-Fc ECD; experiment: ELISA, coated ECD-Fc, antibody 77.160 ng/mL
Procedure: as §1

[7] = molecular target: T2, Human c-Met-Flis-Fc ECD; experiment: ELISA, coated ECD-Fc, antibody 100000.000 ng/mL
Procedure: as §1

[8] = molecular target: T2, Human c-Met-Flis-Fc ECD; experiment: ELISA, coated ECD-Fc, antibody 12.860 ng/mL
Procedure: as §1

[9] = molecular target: T2, Human c-Met-Flis-Fc ECD; experiment: ELISA, coated ECD-Fc, antibody 2777.778 ng/mL
Procedure: as §1

[10] = molecular target: T3, Rat c-Met-Flis-Fc ECD (rat); experiment: SPR Biacore, antibody captured, ECD-Fc analyte, 1:1 model
T3 construct: also called Rat cMet-ECD-Fc-Flis; rat c-Met ECD
T3 sequence (chain, as listed by the source limits assumed): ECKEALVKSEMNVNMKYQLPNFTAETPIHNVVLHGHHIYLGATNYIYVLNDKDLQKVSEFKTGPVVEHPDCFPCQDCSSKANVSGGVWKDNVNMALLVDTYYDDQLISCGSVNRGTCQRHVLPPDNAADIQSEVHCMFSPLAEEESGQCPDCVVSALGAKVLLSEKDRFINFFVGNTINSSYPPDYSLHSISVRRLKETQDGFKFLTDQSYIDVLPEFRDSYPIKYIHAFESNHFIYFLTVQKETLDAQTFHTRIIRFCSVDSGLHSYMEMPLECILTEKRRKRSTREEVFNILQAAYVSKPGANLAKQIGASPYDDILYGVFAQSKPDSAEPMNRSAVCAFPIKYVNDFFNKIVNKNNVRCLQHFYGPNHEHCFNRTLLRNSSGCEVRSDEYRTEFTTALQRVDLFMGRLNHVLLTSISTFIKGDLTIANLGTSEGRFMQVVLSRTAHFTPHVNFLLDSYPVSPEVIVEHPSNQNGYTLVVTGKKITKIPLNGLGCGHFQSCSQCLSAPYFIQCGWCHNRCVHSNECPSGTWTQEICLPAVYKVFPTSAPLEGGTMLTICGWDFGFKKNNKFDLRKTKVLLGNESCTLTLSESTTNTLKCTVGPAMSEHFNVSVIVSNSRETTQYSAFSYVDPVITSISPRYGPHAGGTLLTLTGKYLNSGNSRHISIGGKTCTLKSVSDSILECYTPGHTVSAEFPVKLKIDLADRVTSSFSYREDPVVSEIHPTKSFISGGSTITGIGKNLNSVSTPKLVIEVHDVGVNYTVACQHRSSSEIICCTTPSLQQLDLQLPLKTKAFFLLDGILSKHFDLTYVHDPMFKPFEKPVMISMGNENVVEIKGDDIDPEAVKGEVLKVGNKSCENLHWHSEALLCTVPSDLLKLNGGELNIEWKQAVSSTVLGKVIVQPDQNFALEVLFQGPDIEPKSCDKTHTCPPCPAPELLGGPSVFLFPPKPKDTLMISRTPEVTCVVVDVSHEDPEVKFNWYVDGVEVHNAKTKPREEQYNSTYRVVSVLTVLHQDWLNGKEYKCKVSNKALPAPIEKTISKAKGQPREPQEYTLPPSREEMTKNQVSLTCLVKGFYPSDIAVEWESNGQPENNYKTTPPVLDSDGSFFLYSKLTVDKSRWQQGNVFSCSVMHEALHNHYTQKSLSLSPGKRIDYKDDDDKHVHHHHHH
Procedure: (§2) A Biacore® 2000 instrument is used to measure the binding kinetics of c-Met antibodies to human, cynomolgus monkey, and rat c-Met ECDs. Measurements are performed at 25° C. Samples are dissolved in HBS-EP buffer (150 mM sodium chloride, 3 mM EDTA, 0.005% (w/v) surfactant P-20, and 10 mM N-2-hydroxyethylpiperazine-N′-2-ethanesulfonic acid (HEPES) at pH 7.4; #BR-1001-88).
(§3) Binding is evaluated using multiple cycles. Each cycle is performed at a flow rate of 50 μL/min., and consists of the following steps: injection of about 10 μL of a c-Met antibody at 10 μg/mL aiming at a capture of 40-100 RUs, injection of 250 μL of human, cynomolgus, or rat c-Met-Flis-Fc ECD (starting at 100 nM and using two-fold serial dilutions for each cycle) followed by 20 min. for dissociation, and regeneration using about 30 μL of 10 mM glycine hydrochloride, pH 1.5. Association and dissociation rates for each cycle are evaluated using a “1:1 (Langmuir) binding” model in the BIAevaluation software, version 4.1.

[11] = molecular target: T2, Human c-Met-Flis-Fc ECD; experiment: as above
Procedure: as §2, §3

[12] = molecular target: T4, Cynomolgus Monkey c-Met-Flis-Fc ECD (cynomolgus monkey); experiment: as above
T4 construct: also called Cynomolgus Monkey cMet-ECD-Fc-Flis; cynomolgus monkey c-Met ECD
T4 sequence (chain, as listed by the source limits assumed): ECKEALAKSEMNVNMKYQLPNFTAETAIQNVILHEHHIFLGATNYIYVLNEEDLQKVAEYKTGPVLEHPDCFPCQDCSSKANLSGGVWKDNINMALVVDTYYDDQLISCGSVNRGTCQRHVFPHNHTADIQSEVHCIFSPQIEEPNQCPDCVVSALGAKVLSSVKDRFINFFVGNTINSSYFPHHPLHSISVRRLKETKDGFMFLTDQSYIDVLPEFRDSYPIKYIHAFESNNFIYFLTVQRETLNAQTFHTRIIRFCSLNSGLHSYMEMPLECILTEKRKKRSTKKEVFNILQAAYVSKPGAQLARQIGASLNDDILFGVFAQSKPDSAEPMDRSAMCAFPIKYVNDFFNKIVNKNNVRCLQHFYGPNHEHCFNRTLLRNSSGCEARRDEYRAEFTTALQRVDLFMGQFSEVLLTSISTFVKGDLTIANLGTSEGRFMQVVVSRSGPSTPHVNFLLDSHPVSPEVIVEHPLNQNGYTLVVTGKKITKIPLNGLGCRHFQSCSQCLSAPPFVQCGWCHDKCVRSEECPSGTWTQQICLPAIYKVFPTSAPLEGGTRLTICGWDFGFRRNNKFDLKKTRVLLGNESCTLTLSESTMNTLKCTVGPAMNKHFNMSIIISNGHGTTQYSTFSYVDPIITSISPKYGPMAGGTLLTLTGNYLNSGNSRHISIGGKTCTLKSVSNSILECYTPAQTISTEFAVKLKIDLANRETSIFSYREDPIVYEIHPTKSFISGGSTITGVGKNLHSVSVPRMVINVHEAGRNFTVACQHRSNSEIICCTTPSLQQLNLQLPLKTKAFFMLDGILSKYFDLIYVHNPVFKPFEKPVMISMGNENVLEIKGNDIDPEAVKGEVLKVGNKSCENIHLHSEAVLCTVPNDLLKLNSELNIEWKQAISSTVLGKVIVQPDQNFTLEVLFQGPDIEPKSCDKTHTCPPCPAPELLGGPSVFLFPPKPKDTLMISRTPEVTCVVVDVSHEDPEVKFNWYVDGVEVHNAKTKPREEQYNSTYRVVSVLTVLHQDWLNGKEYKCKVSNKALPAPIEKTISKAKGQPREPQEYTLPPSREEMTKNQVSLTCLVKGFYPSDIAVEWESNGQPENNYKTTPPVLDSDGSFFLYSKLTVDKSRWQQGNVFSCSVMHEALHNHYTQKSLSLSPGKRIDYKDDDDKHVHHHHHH
Procedure: as §2, §3

[13] = molecular target: T2, Human c-Met-Flis-Fc ECD; experiment: ELISA, coated ECD-Fc, antibody 462.963 ng/mL
Procedure: as §1

[14] = molecular target: T2, Human c-Met-Flis-Fc ECD; experiment: ELISA, coated ECD-Fc, antibody 2.143 ng/mL
Procedure: as §1

[15] = molecular target: T2, Human c-Met-Flis-Fc ECD; experiment: ELISA, coated ECD-Fc, antibody 0.002 ng/mL
Procedure: as §1

[16] = molecular target: T2, Human c-Met-Flis-Fc ECD; experiment: ELISA, coated ECD-Fc, antibody 0.357 ng/mL
Procedure: as §1

[17] = molecular target: T2, Human c-Met-Flis-Fc ECD; experiment: ELISA, coated ECD-Fc, antibody 0.010 ng/mL
Procedure: as §1

T1 sequence (P08581 25-1390): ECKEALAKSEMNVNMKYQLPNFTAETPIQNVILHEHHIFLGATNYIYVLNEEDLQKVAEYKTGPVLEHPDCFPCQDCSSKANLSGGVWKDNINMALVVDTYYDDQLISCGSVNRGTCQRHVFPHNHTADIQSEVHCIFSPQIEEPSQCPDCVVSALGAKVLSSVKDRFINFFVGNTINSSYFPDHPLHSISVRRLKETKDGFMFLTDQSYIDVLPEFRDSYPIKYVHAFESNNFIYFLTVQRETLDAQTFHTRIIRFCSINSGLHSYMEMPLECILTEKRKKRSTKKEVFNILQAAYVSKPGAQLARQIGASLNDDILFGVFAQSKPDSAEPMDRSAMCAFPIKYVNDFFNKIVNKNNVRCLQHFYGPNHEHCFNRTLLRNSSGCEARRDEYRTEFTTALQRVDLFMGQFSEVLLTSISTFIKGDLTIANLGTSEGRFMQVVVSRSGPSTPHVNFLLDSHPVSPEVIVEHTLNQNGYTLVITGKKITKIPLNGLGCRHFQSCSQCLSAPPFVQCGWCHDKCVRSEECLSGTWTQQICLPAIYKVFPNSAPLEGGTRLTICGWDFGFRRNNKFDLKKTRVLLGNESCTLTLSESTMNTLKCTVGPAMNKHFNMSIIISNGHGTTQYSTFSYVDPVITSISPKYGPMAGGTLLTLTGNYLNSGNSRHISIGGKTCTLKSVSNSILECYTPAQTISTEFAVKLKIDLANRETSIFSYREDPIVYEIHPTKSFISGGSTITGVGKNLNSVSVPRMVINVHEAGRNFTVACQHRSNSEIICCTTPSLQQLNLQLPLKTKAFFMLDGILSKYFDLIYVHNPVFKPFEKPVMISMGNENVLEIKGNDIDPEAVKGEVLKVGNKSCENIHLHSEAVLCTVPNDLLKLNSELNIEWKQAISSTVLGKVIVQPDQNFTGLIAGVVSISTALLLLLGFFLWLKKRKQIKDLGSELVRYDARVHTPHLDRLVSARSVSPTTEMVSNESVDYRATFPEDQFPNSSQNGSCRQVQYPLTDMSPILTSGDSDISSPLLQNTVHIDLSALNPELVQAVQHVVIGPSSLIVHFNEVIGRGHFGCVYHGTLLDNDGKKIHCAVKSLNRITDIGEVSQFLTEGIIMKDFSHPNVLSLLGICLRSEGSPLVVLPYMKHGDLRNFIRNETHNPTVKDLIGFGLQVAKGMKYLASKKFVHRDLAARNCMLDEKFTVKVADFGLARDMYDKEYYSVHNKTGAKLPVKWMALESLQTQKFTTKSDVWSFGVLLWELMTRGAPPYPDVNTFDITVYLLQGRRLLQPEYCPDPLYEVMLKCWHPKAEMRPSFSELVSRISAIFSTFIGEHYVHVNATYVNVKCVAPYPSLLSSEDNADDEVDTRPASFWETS

B1: D11-C27G3 (antibody, human IgG2, kappa, V domains shown)
VH: QVQLVQSGAEVKKPGSSVKVSCKASGYTFTSRYIHWVRQAPGQGLEWMGWIYPVTGDTYYREPFKGRVTITADKSTSTAYMELSSLRSEDTAVYYCARGYGAFYYWGQGTLVTVSS
VL: EIVLTQSPGTLSLSPGERATLSCSVSSSISSTNLHWYQQKPGQAPRLLIYGTSRLRSGIPDRFSGSGSGTDFTLTISRLEPEDFAVYYCQQWSSYPYSFGQGTKLEIKR
3H-Thymidine Incorporation in Caki-1 Cells in the Absence of HGF (AVG CPM), antibody dose 0.1 ng/mL [1]: 17700 CPM | 3H-Thymidine Incorporation in Caki-1 Cells in the Absence of HGF (AVG CPM), antibody dose 0.4 ng/mL [1]: 13600 CPM | 3H-Thymidine Incorporation in Caki-1 Cells in the Absence of HGF (AVG CPM), antibody dose 2.6 ng/mL [1]: 13300 CPM | 3H-Thymidine Incorporation in Caki-1 Cells in the Absence of HGF (AVG CPM), antibody dose 15.4 ng/mL [1]: 13800 CPM | 3H-Thymidine Incorporation in Caki-1 Cells in the Absence of HGF (AVG CPM), antibody dose 92.6 ng/mL [1]: 14700 CPM | 3H-Thymidine Incorporation in Caki-1 Cells in the Absence of HGF (AVG CPM), antibody dose 555.6 ng/mL [1]: 14500 CPM | 3H-Thymidine Incorporation in Caki-1 Cells in the Absence of HGF (AVG CPM), antibody dose 3333.3 ng/mL [1]: 15800 CPM | 3H-Thymidine Incorporation in Caki-1 Cells in the Absence of HGF (AVG CPM), antibody dose 20000.0 ng/mL [1]: 16100 CPM | 3H-Thymidine Incorporation in Primary Human Hepatocytes in the Absence of HGF (average), dose 0.0032 ug/mL [2]: 693 | 3H-Thymidine Incorporation in Primary Human Hepatocytes in the Absence of HGF (average), dose 0.016 ug/mL [2]: 892 | 3H-Thymidine Incorporation in Primary Human Hepatocytes in the Absence of HGF (average), dose 0.08 ug/mL [2]: 1280 | 3H-Thymidine Incorporation in Primary Human Hepatocytes in the Absence of HGF (average), dose 0.4 ug/mL [2]: 1750 | 3H-Thymidine Incorporation in Primary Human Hepatocytes in the Absence of HGF (average), dose 2 ug/mL [2]: 1870 | 3H-Thymidine Incorporation in Primary Human Hepatocytes in the Absence of HGF (average), dose 10 ug/mL [2]: 2150

B4: D11-8B8 (antibody, human IgG2, kappa, V domains shown)
VH: B1 VH with R61I, P63K, Y104F
VL: B1 VL with R54Y, R56A
notes: Human engineered IgG2, kappa; expressed in HEK293 EBNA cells; also called Mab D11-8B8
Average A450 nm [3]: 4 A450 nm | Average A450 nm [4]: 0.297 A450 nm | Average A450 nm [5]: 0.445 A450 nm | Average A450 nm [6]: 4 A450 nm | Average A450 nm [7]: 4 A450 nm | Average A450 nm [8]: 3.93 A450 nm | Average A450 nm [9]: 4 A450 nm | Kd [10]: 0.89 nM | koff [10]: 0.00019 s⁻¹ | kon [10]: 210000 M⁻¹ s⁻¹ | Kd [11]: 0.5 nM | koff [11]: 5e-05 s⁻¹ | kon [11]: 100000 M⁻¹ s⁻¹ | Kd [12]: 2.9 nM | koff [12]: 0.000223 s⁻¹ | kon [12]: 78000 M⁻¹ s⁻¹ | Average A450 nm [13]: 4 A450 nm | Average A450 nm [14]: 2.42 A450 nm | Average A450 nm [15]: 0.299 A450 nm | Average A450 nm [16]: 1.31 A450 nm | Average A450 nm [17]: 0.304 A450 nm

The remaining lines, values ahead:

3H-Thymidine Incorporation in Caki-1 Cells in the Absence of HGF (AVG CPM), antibody dose 0.1 ng/mL [1]: 15900 CPM | 3H-Thymidine Incorporation in Caki-1 Cells in the Absence of HGF (AVG CPM), antibody dose 0.4 ng/mL [1]: 14600 CPM | 3H-Thymidine Incorporation in Caki-1 Cells in the Absence of HGF (AVG CPM), antibody dose 2.6 ng/mL [1]: 14900 CPM | 3H-Thymidine Incorporation in Caki-1 Cells in the Absence of HGF (AVG CPM), antibody dose 15.4 ng/mL [1]: 14600 CPM | 3H-Thymidine Incorporation in Caki-1 Cells in the Absence of HGF (AVG CPM), antibody dose 92.6 ng/mL [1]: 15300 CPM | 3H-Thymidine Incorporation in Caki-1 Cells in the Absence of HGF (AVG CPM), antibody dose 555.6 ng/mL [1]: 16600 CPM | 3H-Thymidine Incorporation in Caki-1 Cells in the Absence of HGF (AVG CPM), antibody dose 3333.3 ng/mL [1]: 17900 CPM | 3H-Thymidine Incorporation in Caki-1 Cells in the Absence of HGF (AVG CPM), antibody dose 20000.0 ng/mL [1]: 18600 CPM | 3H-Thymidine Incorporation in Primary Human Hepatocytes in the Absence of HGF (average), dose 0.0032 ug/mL [2]: 726 | 3H-Thymidine Incorporation in Primary Human Hepatocytes in the Absence of HGF (average), dose 0.016 ug/mL [2]: 920 | 3H-Thymidine Incorporation in Primary Human Hepatocytes in the Absence of HGF (average), dose 0.08 ug/mL [2]: 1460 | 3H-Thymidine Incorporation in Primary Human Hepatocytes in the Absence of HGF (average), dose 0.4 ug/mL [2]: 1910 | 3H-Thymidine Incorporation in Primary Human Hepatocytes in the Absence of HGF (average), dose 2 ug/mL [2]: 2570 | 3H-Thymidine Incorporation in Primary Human Hepatocytes in the Absence of HGF (average), dose 10 ug/mL [2]: 3160
B2: D11-S17Y (antibody, human IgG2, kappa, V domains shown)
VH: B1 VH with R61N, P63K
VL: B1 VL with R54Y, R56A

Average A450 nm [3]: 4 A450 nm | Average A450 nm [4]: 0.284 A450 nm | Average A450 nm [5]: 0.46 A450 nm | Average A450 nm [6]: 4 A450 nm | Average A450 nm [7]: 3.92 A450 nm | Average A450 nm [8]: 4 A450 nm | Average A450 nm [9]: 4 A450 nm | Kd [10]: 2.7 nM | koff [10]: 0.00034 s⁻¹ | kon [10]: 130000 M⁻¹ s⁻¹ | Kd [11]: 1.4 nM | koff [11]: 9e-05 s⁻¹ | kon [11]: 64000 M⁻¹ s⁻¹ | Kd [12]: 6.5 nM | koff [12]: 0.00032 s⁻¹ | kon [12]: 50000 M⁻¹ s⁻¹ | Average A450 nm [13]: 4 A450 nm | Average A450 nm [14]: 2.53 A450 nm | Average A450 nm [15]: 0.271 A450 nm | Average A450 nm [16]: 1.44 A450 nm | Average A450 nm [17]: 0.29 A450 nm
B3: D11-C27G3 (antibody, human IgG2, kappa, V domains shown)
VH: B1 VH
VL: B1 VL
notes: Human engineered IgG2, kappa; also called D11-27G3
